Experimental data published in USRE50631 (VELOSBIO, dated 2025).

How the values were obtained:
[1] = target: T1, human receptor tyrosine kinase like orphan receptor 1 (ROR1) (human, UniProt Q01973 30-937); assay: flow cytometry on Jeko-1 cells (FIG. 3A)
T1 construct: whole, on cells; Target in all assays is endogenous ROR1 on human tumor cell lines; the cell line is named under assay; also called cell surface ROR1

[2] = target: T1, human receptor tyrosine kinase like …; assay: cell-based or functional assay
[3] = target: T1, human receptor tyrosine kinase like …; assay: binding to Jeko cells; column 'ADC-O Binding KD (nM)', method not described
[4] = target: T1, human receptor tyrosine kinase like …; assay: binding to Jeko cells; column 'ADC-P Binding KD (nM)', method not described
[5] = target: T1, human receptor tyrosine kinase like …; assay: flow cytometry on Jeko-1 cells (FIG. 3B)
[6] = target: T1, human receptor tyrosine kinase like …; assay: flow cytometry on Jeko-1 cells, PE anti-human IgG secondary, % maximal binding
[7] = target: T1, human receptor tyrosine kinase like …; assay: flow cytometry on MDA-MB-231 cells, PE anti-human IgG secondary, % maximal binding
[8] = target: T1, human receptor tyrosine kinase like …; assay: binding to Jeko cells; column 'ADC-Q Binding KD (nM)', method not described

T1 sequence (Q01973 30-937): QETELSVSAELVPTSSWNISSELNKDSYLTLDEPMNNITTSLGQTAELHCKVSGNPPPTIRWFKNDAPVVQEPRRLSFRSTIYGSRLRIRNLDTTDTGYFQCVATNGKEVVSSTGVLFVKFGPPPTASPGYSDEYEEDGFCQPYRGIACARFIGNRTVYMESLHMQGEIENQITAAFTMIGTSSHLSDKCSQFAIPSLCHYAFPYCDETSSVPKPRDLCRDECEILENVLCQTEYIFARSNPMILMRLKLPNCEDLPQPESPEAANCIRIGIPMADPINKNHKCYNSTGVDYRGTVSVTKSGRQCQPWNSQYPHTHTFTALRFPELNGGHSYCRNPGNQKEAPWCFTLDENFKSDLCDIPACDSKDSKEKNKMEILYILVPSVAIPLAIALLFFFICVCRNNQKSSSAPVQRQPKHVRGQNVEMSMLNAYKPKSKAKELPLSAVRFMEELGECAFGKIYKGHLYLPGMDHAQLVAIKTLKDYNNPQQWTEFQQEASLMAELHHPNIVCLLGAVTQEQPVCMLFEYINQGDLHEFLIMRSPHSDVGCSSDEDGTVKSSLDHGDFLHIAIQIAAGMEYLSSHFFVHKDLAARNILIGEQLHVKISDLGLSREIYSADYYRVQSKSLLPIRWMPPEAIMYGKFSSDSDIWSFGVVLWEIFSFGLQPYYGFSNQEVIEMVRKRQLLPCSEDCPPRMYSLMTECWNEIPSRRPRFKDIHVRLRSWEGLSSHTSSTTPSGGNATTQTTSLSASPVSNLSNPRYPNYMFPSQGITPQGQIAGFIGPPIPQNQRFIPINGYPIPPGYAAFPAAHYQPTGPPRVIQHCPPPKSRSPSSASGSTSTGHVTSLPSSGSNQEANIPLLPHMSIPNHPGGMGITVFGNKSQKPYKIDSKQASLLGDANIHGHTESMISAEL

B1: 4A5 (antibody, V domains shown)
VH: EVKLVESGGGLVKPGGSLKLSCAASGFTFSSYAMSWVRQIPEKRLEWVASISRGGTTYYPDSVKGRFTISRDNVRNILYLQMSSLRSEDTAMYYCGRYDYDGYYAMDYWGQGTSVTVSS
VL: DIKMTQSPSSMYASLGERVTITCKASPDINSYLSWFQQKPGKSPKTLIYRANRLVDGVPSRFSGGGSGQDYSLTINSLEYEDMGIYYCLQYDEFPYTFGGGTKLEMK
notes: also called anti-ROR1 antibody 4A5
EC50 [1]: 0.121 µg/mL

B2: ADC-T (antibody, V domains shown)
VH: EVKLVESGGGLVKPGGSLKLSCAASGFTFSSYAMSWVRQIPEKRLEWVASISRGGTTYYPDSVKGRFTISRDNVRNILYLQMSSLRSEDTAMYYCGRYDYDGYYAMDYWGQGTSVTVSS
VL: DIKMTQSPSSMYASLGERVTITCKASPDINSYLSWFQQKPGKSPKTLIYRANRLVDGVPSRFSGGGSGQDYSLTINSLEYEDMGIYYCLQYDEFPYTFGGGTKLEMK
modifications: MAL-VC-PAB-MMAE bonded via cysteine residues of the antibody (positions not stated)
notes: Antibody-drug conjugate of 4A5; also called 4A5-MAL-VC-PAB-MMAE
EC50 [1]: 0.193 µg/mL

B3: ADC-E (antibody, human IgG1, kappa, V domains shown)
VH: QVQLQESGPGLVKPSQTLSLTCTVSGYAFTAYNIHWVRQAPGQGLEWMGSFDPYDGGSSYNQKFKDRLTISKDTSKNQVVLTMTNMDPVDTATYYCARGWYYFDYWGHGTLVTVSS
VL: DIVMTQTPLSLPVTPGEPASISCRASKSISKYLAWYQQKPGQAPRLLIYSGSTLQSGIPPRFSGSGYGTDFTLTINNIESEDAAYYFCQQHDESPYTFGEGTKVEIKR
modifications: SC-VC-PAB-MMAE bonded via lysine residues of the antibody (chain and positions not stated)
IC50, cell viability (CellTiter-Glo, 72 h), Bt549 cells [2]: 74.4 nM
IC50, cell viability (CellTiter-Glo, 72 h), DOHH2 cells [2]: 89.6 nM
IC50, cell viability (CellTiter-Glo, 72 h), HBL-1 cells [2]: 147 nM
IC50, cell viability (CellTiter-Glo, 72 h), JHOM1 cells [2]: 32.9 nM
IC50, cell viability (CellTiter-Glo, 72 h), MDA-MB-468 cells [2]: 80.1 nM
IC50, cell viability (CellTiter-Glo, 72 h), SKOvr3 cells [2]: 201 nM
IC50, cell viability (CellTiter-Glo, 72 h), TMD-8 cells [2]: 94.3 nM
IC50, cell viability (CellTiter-Glo, 72 h), TOV112D cells [2]: 57.8 nM

B4: ADC-O (antibody, human IgG1, kappa, V domains shown)
VH: QVQLQESGPGLVKPSQTLSLTCTVSGYAFTAYNIHWVRQAPGQGLEWMGSFDPYDGGSSYNQKFKDRLTISKDTSKNQVVLTMTNMDPVDTATYYCARGWYYFDYWGHGTLVTVSS
VL: DIVMTQTPLSLPVTPGEPASISCRASKSISKYLAWYQQKPGQAPRLLIYSGSTLQSGIPPRFSGSGYGTDFTLTINNIESEDAAYYFCQQHDESPYTFGEGTKVEIKR
modifications: MAL-C2-Gly3-EDA-PNU-159682 bonded via cysteine residues of the antibody (chain and positions not stated)
notes: Antibody-drug conjugate of Ab1; also called Ab1-MAL-C2-Gly3-EDA-PNU-159682
Kd [3]: 0.12 nM

B5: ADC-P (antibody, human IgG1, kappa, V domains shown)
VH: QVQLQESGPGLVKPSQTLSLTCTVSGYAFTAYNIHWVRQAPGQGLEWMGSFDPYDGGSSYNQKFKDRLTISKDTSKNQVVLTMTNMDPVDTATYYCARGWYYFDYWGHGTLVTVSS
VL: DIVMTQTPLSLPVTPGEPASISCRASKSISKYLAWYQQKPGQAPRLLIYSGSTLQSGIPPRFSGSGYGTDFTLTINNIESEDAAYYFCQQHDESPYTFGEGTKVEIKR
modifications: MAL-Phe-C4-VC-PAB-DMEA-PNU-159682 bonded via cysteine residues of the antibody (chain and positions not stated)
notes: Antibody-drug conjugate of Ab1; also called Ab1-MAL-Phe-C4-VC-PAB-DMEA-PNU-159682
Kd [4]: 0.11 nM

B6: Ab1 (antibody, human IgG1, kappa, V domains shown)
VH: QVQLQESGPGLVKPSQTLSLTCTVSGYAFTAYNIHWVRQAPGQGLEWMGSFDPYDGGSSYNQKFKDRLTISKDTSKNQVVLTMTNMDPVDTATYYCARGWYYFDYWGHGTLVTVSS
VL: DIVMTQTPLSLPVTPGEPASISCRASKSISKYLAWYQQKPGQAPRLLIYSGSTLQSGIPPRFSGSGYGTDFTLTINNIESEDAAYYFCQQHDESPYTFGEGTKVEIKR
notes: also called unconjugated Ab1; parental antibody Ab1
EC50 [1]: 0.0164 µg/mL
EC50 [5]: 0.0165 µg/mL
EC50 [6]: 0.0136 µg/mL
EC50 [7]: 0.0328 µg/mL

B7: ADC-Q (antibody, human IgG1, kappa, V domains shown)
VH: QVQLQESGPGLVKPSQTLSLTCTVSGYAFTAYNIHWVRQAPGQGLEWMGSFDPYDGGSSYNQKFKDRLTISKDTSKNQVVLTMTNMDPVDTATYYCARGWYYFDYWGHGTLVTVSS
VL: DIVMTQTPLSLPVTPGEPASISCRASKSISKYLAWYQQKPGQAPRLLIYSGSTLQSGIPPRFSGSGYGTDFTLTINNIESEDAAYYFCQQHDESPYTFGEGTKVEIKR
modifications: deglycosylated with PNGase F; azido-PEG3-amine put on glutamine residues by microbial transglutaminase, then DBCO-(PEG2-VC-PAB-MMAE)2 via a triazole (chain and positions not stated); DAR 4.4
notes: also called Ab1-DBCO-(PEG2-VC-PAB-MMAE)2
Kd [8]: 0.23 nM
